B1: ADP-ribosylation factor-like protein 2-binding protein (Homo sapiens), Q9Y2Y0 (parent)
chain: MDALEGESFALSFSSASDAEFDAVVGYLEDIIMDDEFQLLQRNFMDKYYLEFEDTEENKLIYTPIFNEYISLVEKYIEEQLLQRIPEFNMAAFTTTLQHHKDEVAGDIFDMLLTFTDFLAFKEMFLDYRAEKEGRGLDLSSGLVVTSLCKSSSLPASQNNLRH
B2: Mothers against decapentaplegic homolog 4 (Homo sapiens), Q13485 (parent)
chain: MDNMSITNTPTSNDACLSIVHSLMCHRQGGESETFAKRAIESLVKKLKEKKDELDSLITAITTNGAHPSKCVTIQRTLDGRLQVAGRKGFPHVIYARLWRWPDLHKNELKHVKYCQYAFDLKCDSVCVNPYHYERVVSPGIDLSGLTLQSNAPSSMMVKDEYVHDFEGQPSLSTEGHSIQTIQHPPSNRASTETYSTPALLAPSESNATSTANFPNIPVASTSQPASILGGSHSEGLLQIASGPQPGQQQNGFTGQPATYHHNSTTTWTGSRTAPYTPNLPHHQNGHLQHHPPMPPHPGHYWPVHNELAFQPPISNHPAPEYWCSIAYFEMDVQVGETFKVPSSCPIVTVDGYVDPSGGDRFCLGQLSNVHRTEAIERARLHIGKGVQLECKGEGDVWVRCLSDHAVFVQSYYLDREAGRAPGDAVHKIYPSAYIKVFDLRQCHRQMQQQAATAQAAAAAQAAAVAGNIPGPGSVGGIAPAISLSAAAGIGVDDLRRLCILRMSFVKGWGPDYPRQSIKETPCWIEIHLHRALQLLDEVLHTMPIADPQPLD
B3: Interleukin-1 receptor-associated kinase 4 (Homo sapiens), Q9NWZ3 (parent)
chain: MNKPITPSTYVRCLNVGLIRKLSDFIDPQEGWKKLAVAIKKPSGDDRYNQFHIRRFEALLQTGKSPTSELLFDWGTTNCTVGDLVDLLIQNEFFAPASLLLPDAVPKTANTLPSKEAITVQQKQMPFCDKDRTLMTPVQNLEQSYMPPDSSSPENKSLEVSDTRFHSFSFYELKNVTNNFDERPISVGGNKMGEGGFGVVYKGYVNNTTVAVKKLAAMVDITTEELKQQFDQEIKVMAKCQHENLVELLGFSSDGDDLCLVYVYMPNGSLLDRLSCLDGTPPLSWHMRCKIAQGAANGINFLHENHHIHRDIKSANILLDEAFTAKISDFGLARASEKFAQTVMTSRIVGTTAYMAPEALRGEITPKSDIYSFGVVLLEIITGLPAVDEHREPQLLLDIKEEIEDEEKTIEDYIDKKMNDADSTSVEAMYSVASQCLHEKKNKRPDIKKVQQLLQEMTAS
B4: DNA mismatch repair protein Mlh1 (Homo sapiens), P40692 (parent)
chain: MSFVAGVIRRLDETVVNRIAAGEVIQRPANAIKEMIENCLDAKSTSIQVIVKEGGLKLIQIQDNGTGIRKEDLDIVCERFTTSKLQSFEDLASISTYGFRGEALASISHVAHVTITTKTADGKCAYRASYSDGKLKAPPKPCAGNQGTQITVEDLFYNIATRRKALKNPSEEYGKILEVVGRYSVHNAGISFSVKKQGETVADVRTLPNASTVDNIRSIFGNAVSRELIEIGCEDKTLAFKMNGYISNANYSVKKCIFLLFINHRLVESTSLRKAIETVYAAYLPKNTHPFLYLSLEISPQNVDVNVHPTKHEVHFLHEESILERVQQHIESKLLGSNSSRMYFTQTLLPGLAGPSGEMVKSTTSLTSSSTSGSSDKVYAHQMVRTDSREQKLDAFLQPLSKPLSSQPQAIVTEDKTDISSGRARQQDEEMLELPAPAEVAAKNQSLEGDTTKGTSEMSEKRGPTSSNPRKRHREDSDVEMVEDDSRKEMTAACTPRRRIINLTSVLSLQEEINEQGHEVLREMLHNHSFVGCVNPQWALAQHQTKLYLLNTTKLSEELFYQILIYDFANFGVLRLSEPAPLFDLAMLALDSPESGWTEEDGPKEGLAEYIVEFLKKKAEMLADYFSLEIDEEGNLIGLPLLIDNYVPPLEGLPIFILRLATEVNWDEEKECFESLSKECAMFYSIRKQYISEESTLSGQQSEVPGSIPNSWKWTVEHIVYKALRSHILPPKHFTEDGNILQLANLPDLYKVFERC
B5: Barrier-to-autointegration factor (Homo sapiens), O75531 (parent)
chain: MTTSQKHRDFVAEPMGEKPVGSLAGIGEVLGKKLEERGFDKAYVVLGQFLVLKKDEDLFREWLKDTCGANAKQSRDCFGCLREWCDAFL
partner: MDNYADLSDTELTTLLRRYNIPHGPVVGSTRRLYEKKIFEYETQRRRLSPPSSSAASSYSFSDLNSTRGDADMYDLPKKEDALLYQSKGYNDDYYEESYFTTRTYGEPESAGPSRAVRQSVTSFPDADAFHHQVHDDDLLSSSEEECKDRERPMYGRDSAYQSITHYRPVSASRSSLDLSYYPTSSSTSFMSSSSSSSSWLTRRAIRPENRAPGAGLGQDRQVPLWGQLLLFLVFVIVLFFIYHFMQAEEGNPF

Variants of: B1
Settings: with arl2_human ARL2, P36404

Row | Variant | effect of a mutation on the interaction
1 | MDALEGESFALSFSSASDAEFDAVVGYLEDIIMDDEFQLLQRNFRDKYYLEFEDTEENKLIYTPIFNEYISLVEKYIEEQLLQRIPEFNMAAFTTTLQHHKDEVAGDIFDMLLTFTDFLAFKEMFLDYRAEKEGRGLDLSSGLVVTSLCKSSSLPASQNNLRH [M45R] | disrupting interaction strength

Variants of: B2
Settings: with smad3_human SMAD3, P84022

Row | Variant | effect of a mutation on the interaction
2 | C324R | disrupting interaction strength
3 | V350D | disrupting interaction strength

Second part, the variant after the results:

Row | effect of a mutation on the interaction | Variant
4 | disrupting interaction strength | L533R
5 | disrupting interaction strength | E330K
6 | disrupting interaction strength | G352R

Variants of: B2
Settings: with smad3_human SMAD3, P84022
Remark: another data set of the same source

Row | Variant | effect of a mutation on the interaction
7 | R361C | disrupting interaction strength
8 | N13S | with no effect
9 | Y353S | disrupting interaction strength

Variants of: B2
Settings: with smad9_human SMAD9, O15198

Row | Variant | effect of a mutation on the interaction
10 | R361C | disrupting interaction strength
11 | N13S | with no effect
12 | Y353S | disrupting interaction strength

Variants of: B3
Settings: with myd88_human MYD88, Q99836

Row | Variant | effect of a mutation on the interaction
13 | MNKPITPSTYVRCLNVGLIRKLSDFIDPQEGWKKLAVAIKKPSGDDRYNQFHIRRFEALLQTGKSPTSELLFDWGTTNCTVGDLVDLLIQNEFFAPASLLLPDAVPKTANTLPSKEAITVQQKQMPFCDKDRTLMTPVQNLEQSYMPPDSSSPENKSLEVSDTRFHSFSFYELKNVTNNFDERPISVGGNKMGEGGFGVVYKGYVNNTTVAVKKLAAMVDITTEELKQQFDQEIKVMAKCQHENLVELLGFSSDGDDLCLVYVYMPNGSLLDRLSCLDGTPPLSWHMRCKIAQGAANGINFLHENHHIHRDIKSANILLDEAFTAKISDFGLARASEKFAQTVMTSRIVGTTAYMAPEALRGEITPKSDIYSFGVVLLEIITGLPAVDEHREPQLLLDIKEEIEDEEKTIEDYIDKKMNDADSTSVETMYSVASQCLHEKKNKRPDIKKVQQLLQEMTAS [A428T] | with no effect
14 | MNKPITPSTYVCCLNVGLIRKLSDFIDPQEGWKKLAVAIKKPSGDDRYNQFHIRRFEALLQTGKSPTSELLFDWGTTNCTVGDLVDLLIQNEFFAPASLLLPDAVPKTANTLPSKEAITVQQKQMPFCDKDRTLMTPVQNLEQSYMPPDSSSPENKSLEVSDTRFHSFSFYELKNVTNNFDERPISVGGNKMGEGGFGVVYKGYVNNTTVAVKKLAAMVDITTEELKQQFDQEIKVMAKCQHENLVELLGFSSDGDDLCLVYVYMPNGSLLDRLSCLDGTPPLSWHMRCKIAQGAANGINFLHENHHIHRDIKSANILLDEAFTAKISDFGLARASEKFAQTVMTSRIVGTTAYMAPEALRGEITPKSDIYSFGVVLLEIITGLPAVDEHREPQLLLDIKEEIEDEEKTIEDYIDKKMNDADSTSVEAMYSVASQCLHEKKNKRPDIKKVQQLLQEMTAS [R12C] | disrupting interaction strength
15 | MNKPITPSTYVRCLNVGLIRKLSDFIDPQEGWKKLAVAIKKPSGDDRYNQFHIRRFEALLQTGKSPTSELLFDWGTTNCTVGDLVDLLIQNEFFAPASLLLPDAVPKTANTLPSKEAITVQQKQMPFCDKDRTLMTPVQNLEQSYMPPDSSSPENKSLEVSDTRFHSFSFYELKNVTNNFDERPISVGGNKMGEGGFGVVYKGYVNNTTVAVKKLAAMVDITTEELKQQFDQEIKVMAKCQHENLVELLGFSSDGDDLCLVYVYMPNGSLLDRLSCLDGTPPLSWHMRCKIAQGAANDINFLHENHHIHRDIKSANILLDEAFTAKISDFGLARASEKFAQTVMTSRIVGTTAYMAPEALRGEITPKSDIYSFGVVLLEIITGLPAVDEHREPQLLLDIKEEIEDEEKTIEDYIDKKMNDADSTSVEAMYSVASQCLHEKKNKRPDIKKVQQLLQEMTAS [G298D] | disrupting interaction strength

Variants of: B4
Settings: with hsp7c_human HSPA8, P11142

Row | Variant | effect of a mutation on the interaction
16 | I107R | increasing interaction strength

Variants of: B5
Settings: with emd_human EMD

Row | Variant | effect of a mutation on the interaction
17 | MTTSQKHRDFVTEPMGEKPVGSLAGIGEVLGKKLEERGFDKAYVVLGQFLVLKKDEDLFREWLKDTCGANAKQSRDCFGCLREWCDAFL [A12T] | with no effect

— IntAct's records for PubMed 25502805
